Consider six molecules from patent US20250250357A1 (NANJING ZAIMING PHARMACEUTICAL, published 2025).

Changes are numbered by the printed parent chain.

The labels stand for the following.
B1: S009-F8-12.13 (antibody, human IgG1, kappa, V domains shown)
VH: QVQLQQPGAELVKPGASVKLSCKASGYTFTSYWMHWVKQRPGQGLEWIGMIHPNSGSTNYNEKFKSKATLTVDKSSSTAYMQLSSLTSEDSAVYYCARRTPIITLVGHWYFDVWGTGTTVTVSS
VL: DIVMTQSHKFMSTSVGDRVSITCKASQDVGTAVAWYQQKPGQSPKLLIYWASTRHTGVPDRFTGSGSGTDFTLTISNVQSEDLADYFCQQYSSYPLTFGAGTKLELKR
notes: human-murine chimeric antibody, human IgG1/kappa constant regions
B2: S009-F8-15.19 (antibody, human IgG1, kappa, V domains shown)
VH: EFQLQQSGPELVKPGASVKISCKASGYSFTDYNMNWVKQSNGKSLEWIGIINPYYGTTSNNQNFKGKATLTVDQSSSTAYMQLNSLTSDDSAVYYCARWLRRDAMDYWGQGTSVTVSS
VL: B1 VL with Q6P, T22A, T31S, A32S, A51T, L96W, A100G, L106I
notes: as for B1
B3: S009-F8-31.22 (antibody, human IgG1, kappa, V domains shown)
VH: EVQLVESGGDLVKPGGSLKLSCAASGFTFSTYGMSWVRQTPDKRLEWVATISSGGSYTYYPDSLKGRFTISRDNAKNTLYLQMSSLKSEDTAMYYCARHEGYYYGKDYWGQGTTLTVSS
VL: DIVLTQSPATLSVTPGDSVSLSCRASHSISNNLHWYQQKSHESPRLLIKYASQSISGIPSKFSGSGSGTDFTLSINSVETEDFGMYFCQQTNSWPLTFGAGTKLELKR
notes: as for B1
B4: S009-F8-5.15 (antibody, human IgG1, kappa, V domains shown)
VH: QVQLQQPGTELVKPGASVKLSCKASGYTFTSYWMHWVKQRPGQGLEWIGHSNPSNGGTNYNEKFKSKATLTVDKSSSTAYMQLSSLTSEDSAVYYCARWVRGSNYEYFDVWGTGTTVTVSS
VL: DIVMTQSQKFMSTTVGDRVSIICKASQNVGSAVAWCQQKPGQSPKLLIYSASNRYTGVPDRFTGSGSGTDFTLTISNMQSEDLADYFCQQYSSYPLTFAGGTKLEIKR
notes: as for B1
B5: S009-F8-19.21 (antibody, human IgG1, kappa, V domains shown)
VH: EFQLQQSGPELVKPGASVKISCKTSGYSFTDYNMNWVKQSNGKSLEWIGVINPNYGTTGYNQKFKGKATLTVDQSSSTAYMQLNSLTSEDSAVYYCARGGYDGEAMDYWGHGTSVTVSS
VL: QIVLTQSPAIMSASPGEKVTMTCSASSSVNYMHWYQQKSGTSPKRWIYDTSKLASGVPARFSGSGSGTSYSLTISSMEAEDAATYYCQQWSSYPPTFGGGTKLEIKR
notes: as for B1
B6: S009-F8-13.8 (antibody, human IgG1, kappa, V domains shown)
VH: EFQLQQSGPELVKPGASVKISCKASGYSFTDYNMNWVKQTNGKSLEWIGIINPNYGTSSYNQKFKGKATLTVDQSSSTAYMQLNSLTSEDSAVYYCARVGRDNSGFDYWGQGTTLTVSS
VL: QIVLTQSPAIMSASPGEKVTMTCSASSSVSYMYWYQQKPGSSPRLLIYDTSNLASGVPVRFSGSGSGTSYSLTISRMEAEDAATYYCQQWSSYPPTFGSGTELEIKR
notes: as for B1

T3 sequence (Q13421 other isoform, or with tags, fused parts or gaps): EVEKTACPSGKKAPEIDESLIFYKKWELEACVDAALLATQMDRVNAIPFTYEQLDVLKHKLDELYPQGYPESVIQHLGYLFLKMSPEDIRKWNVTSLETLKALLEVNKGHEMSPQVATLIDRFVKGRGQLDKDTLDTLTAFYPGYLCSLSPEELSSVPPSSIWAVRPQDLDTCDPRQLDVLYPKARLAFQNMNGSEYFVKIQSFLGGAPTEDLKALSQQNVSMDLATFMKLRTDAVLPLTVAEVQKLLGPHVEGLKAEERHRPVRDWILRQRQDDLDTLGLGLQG

In one test the target is T1, human MSLN protein endogenously expressed on OVCAR3 tumor cells (human, UniProt Q13421 296-598).
T1 construct: whole, on cells; endogenous expression on a tumor cell line; also called human mesothelin
T1 sequence (Q13421 other isoform, or with tags, fused parts or gaps): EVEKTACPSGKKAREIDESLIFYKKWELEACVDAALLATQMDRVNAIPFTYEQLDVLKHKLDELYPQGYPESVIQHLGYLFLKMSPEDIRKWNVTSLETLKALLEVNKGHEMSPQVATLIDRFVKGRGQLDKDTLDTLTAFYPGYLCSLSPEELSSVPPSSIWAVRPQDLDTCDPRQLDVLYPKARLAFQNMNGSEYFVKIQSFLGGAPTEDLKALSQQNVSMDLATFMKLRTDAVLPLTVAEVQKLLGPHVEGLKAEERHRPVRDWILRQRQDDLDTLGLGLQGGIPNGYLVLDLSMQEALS
The experiment in a line: FACS on OVCAR3 cells.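 Also: flow cytometry of chimeric antibody binding to OVCAR3 cells, 2 h on ice, read as cellular mean fluorescence intensity.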
Experimental: The desired cells were expanded to the logarithmic growth phase in a T-75 cell culture flask. […] After the cells from the previous step were subjected to cell counting, the cell pellet was resuspended to 2×10⁶ cells/mL in a blocking buffer of [PBS+2% (w/w) BSA] and added into a 96-well FACS reaction plate at 50 μL/well. A chimeric antibody (a sample to be tested) was added at 50 μL/well, and the plate was incubated on ice for 2 h. […] After the plate was centrifuged and washed 5 times with a PBST buffer, assay and analysis were performed by FACS (FACS CantoII, purchased from BD). Data analysis was performed by software (Flowjo) to obtain the mean fluorescence intensity (MFI) of the cells.
Take B1: the EC50 is 2.24 nM and the “Maximum mean fluorescence intensity” value came to 9830.
With B2, the EC50 was determined as 3.16 nM and the “Maximum mean fluorescence intensity” value is 8140.
Consider B3, for which the EC50 stood at 0.64 nM and the “Maximum mean fluorescence intensity” value is 7750.
B4: the midpoint of the response, the EC50, lay at 4.08 nM and the “Maximum mean fluorescence intensity” value is 4920.
As for B5, a half-maximal effect (EC50) was put at 5.13 nM and the “Maximum mean fluorescence intensity” value stood at 13000.
On to B6, for which a half-maximal response (EC50) required 1.42 nM and the “Maximum mean fluorescence intensity” value is 13000.

In another test the target is T2, human MSLN-R3 protein expressed on HEK293T cells (HEK293T-hMSLN-R3) (human, UniProt Q13421 487-606).
T2 construct: C-terminal limit uncertain
T2 sequence (Q13421 495-614): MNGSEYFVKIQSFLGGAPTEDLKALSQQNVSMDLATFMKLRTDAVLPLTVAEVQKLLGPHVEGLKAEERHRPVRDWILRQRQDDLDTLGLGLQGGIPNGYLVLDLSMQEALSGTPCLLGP
The experiment in a line: FACS on HEK293T-hMSLN-R3 cells.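 Also: chimeric antibodies incubated with cells on ice for 2 h, binding read by flow cytometry as mean fluorescence intensity.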
Regarding B1, the “Maximum mean fluorescence intensity” value is 135 and the binding result was “no binding”.
For B2, in that order: 165 and “no binding”.
Consider B3, for which the “Maximum mean fluorescence intensity” value was found to be 189 and the binding result was “no binding”.
For B4, in that order: 98 and “no binding”.
B5: the “Maximum mean fluorescence intensity” value amounted to 98 and the binding result is “no binding”.
For B6, the “Maximum mean fluorescence intensity” value was 95 and the binding result is reported as “no binding”.

A further test has as its target T3, human MSLN-FL-his protein (human, UniProt Q13421 296-580).
T3 construct: made in HEK293E cells, purified on nickel column; also called hMSLN-FL-his; human MSLN full-length protein; not shown: His tag
The experiment in a line: competitive ELISA; row F8-4.5. A general note: In an ELISA, binding on a coated surface is turned into a signal by an enzyme label.
Turning to B1, the competition rate came out at 88.2%.
Regarding B2, the competition rate came to 43.8%.
Same read-out and setting: the figure for B3 is -2.53%; for B4 it is 29.6%; for B5 it is 89.7%.
Regarding B6, the competition rate came to 93%.

For a further test, the target named is T3, human MSLN-FL-his protein. The experiment in a line: competitive ELISA; row F8-7.5.
Experimental: (§1) In order to identify antigen-binding sites of antibodies, MSLN chimeric antibodies were grouped using competitive ELISA.
(§2) The chimeric antibodies were diluted to 2 μg/mL with PBS and allowed to coat 96-well high-adsorption ELISA plates at 50 μL/well. After the plates were coated at 4° C. overnight, 250 μL of a blocking buffer (PBS containing 2% (w/w) BSA) was added for two hours of blocking at room temperature. 40 μg/mL of the antibodies to be tested were added, and then the human MSLN-FL-His protein with an EC₈₀ concentration corresponding to each of the antibodies to be tested was added for incubation for 2 h. The plates were washed 5 times with PBS, an HRP-labeled anti-His secondary antibody (purchased from Genescript, Cat. No. A00612) was then added for incubation for 1 h, and the plates were washed 5 times again. A TMB substrate was added at 50 μL/well, and after 10 minutes of incubation at room temperature, a stop solution (1.0 M HCl) was added at 50 μL/well. OD₄₅₀ nm values were read using an ELISA plate reader (Insight, purchased from PerkinElmer), and the competition rate between the antibodies was calculated according to the OD₄₅₀ nm values using a formula.
As for B1, the competition rate is -135%.
Still for that read-out and setting: the figure for B2 is -117%; for B3 it is 18.1%.
On to B4, for which the competition rate was -148%.
As for B5, the competition rate is -137%.
Same read-out and setting: the figure for B6 is -135%.

For the next test, the target named is T3, human MSLN-FL-his protein. The experiment in a line: competitive ELISA; row Tab021.
Experimental: as §1, §2
Consider B1, for which the competition rate amounted to 6.56%.
As for B2, the competition rate was -2.08%.
On to B3, for which the competition rate is 10.3%.
For B4, the competition rate is 1.09%.
Consider B5, for which the competition rate was determined as 4.93%.
On the same count and under the same terms, the figure for B6 is 14.2%.

In a further test the target is T3, human MSLN-FL-his protein. The experiment in a line: competitive ELISA; row Tab142.
Experimental: as §1, §2
As for B1, the competition rate is 65.5%.
Same read-out and setting: the figure for B2 is 39.3%; for B3 it is 12.9%.
With B4, the competition rate was found to be 15.3%.
Take B5: the competition rate was 92.2%.
In the case of B6, the competition rate is 93.8%.

For a further test, the target named is T3, human MSLN-FL-his protein. In words: competitive ELISA; row F8-13.8.
Experimental: as §1, §2
On to B1, for which the competition rate was found to be 51.1%.
Consider B2, for which the competition rate stood at 24%.
On to B3, for which the competition rate came out at 5.21%.
As for B4, the competition rate worked out at 7.5%.
Turning to B5, the competition rate was found to be 82%.
Consider B6, for which the competition rate is 86.2%.

The target in another test is T3, human MSLN-FL-his protein. The experiment in a line: competitive ELISA; row F8-18.9.
Experimental: as §1, §2
As to B1, the competition rate was found to be 10.1%.
On the same count and under the same terms, the figure for B2 is 8.37%.
Regarding B3, the competition rate was 0.11%.
In the case of B4, the competition rate amounted to 8.9%.
Same read-out and setting: for B5 the value was 6.96%.
With B6, the competition rate is 11.3%.

In the next test the target is T3, human MSLN-FL-his protein. In words: competitive ELISA; row F8-27.1.
Experimental: as §1, §2
On to B1, for which the competition rate is 93.5%.
With B2, the competition rate was 75.5%.
On to B3, for which the competition rate came to 11.7%.
B4: the competition rate is 39.7%.
Same read-out and setting: for B5 the value was 98.4%; for B6, 98.4%.

A further test addresses T3, human MSLN-FL-his protein. The experiment in a line: competitive ELISA; row F8-5.15.
Experimental: as §1, §2
As to B1, the competition rate is 99.3%.
As to B2, the competition rate was determined as 99.3%.
B3: the competition rate amounted to 86.5%.
B4: the competition rate stood at 96.8%.
In the case of B5, the competition rate came to 99.5%.
As for B6, the competition rate amounted to 99.9%.

The next test addresses T3, human MSLN-FL-his protein. The experiment in a line: competitive ELISA; row F8-12.13.
Experimental: as §1, §2
On to B1, for which the competition rate is 93.7%.
As for B2, the competition rate came to 89.3%.
Same read-out and setting: for B3 the value was 64.8%.
Regarding B4, the competition rate stood at 79.2%.
For B5, the competition rate worked out at 97.3%.
Turning to B6, the competition rate worked out at 97.9%.

The next test concerns the target T3, human MSLN-FL-his protein. The experiment in a line: competitive ELISA; row F8-15.19.
Experimental: as §1, §2
As to B1, the competition rate was found to be 98.5%.
As for B2, the competition rate came to 94.1%.
Same read-out and setting: for B3 the value was 83.2%; for B4, 82.2%; for B5, 99.8%.
As to B6, the competition rate is 99.8%.

For the next test, the target named is T3, human MSLN-FL-his protein. In words: competitive ELISA; row F8-19.21.
Experimental: as §1, §2
Consider B1, for which the competition rate was found to be 75.9%.
The same measure, in the same setting: for B2 the value was 46.9%.
On the same count and under the same terms, the figure for B3 is 16.3%.
On to B4, for which the competition rate turned out to be 25.5%.
With B5, the competition rate was found to be 95.4%.
Consider B6, for which the competition rate amounted to 96.5%.

The target in a further test is T3, human MSLN-FL-his protein. The experiment in a line: competitive ELISA; row F8-31.22.
Experimental: as §1, §2
Consider B1, for which the competition rate was 92.2%.
Take B2: the competition rate is 90.7%.
B3: the competition rate worked out at 69.3%.
Still for that read-out and setting: for B4 the value was 79%; for B5, 98.5%.
In the case of B6, the competition rate stood at 99%.

The target in the next test is T3, human MSLN-FL-his protein. The experiment in a line: SPR (Biacore), antibody captured on Protein A chip.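 Also: flow cell at 25 °C, antigen injected for 240 s at five concentrations from 200 nM downward, dissociation followed up to 600 s, double-referenced, fitted with Langmuir 1:1 model.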 A general note: SPR reads the build-up and loss of mass on a sensor chip optically.
Turning to B1, binding was put at a Kd of 5.5 nM, the koff was determined as 0.00296 s⁻¹ and the on-rate constant (kon) worked out at 539000 M⁻¹ s⁻¹.
In turn, B2 had a Kd of 5.37 nM, a koff of 0.00724 s⁻¹ and a kon of 1.35e+06 M⁻¹ s⁻¹.
In turn, B3 yielded an equilibrium dissociation constant (Kd) of 87.6 nM, a koff of 0.0276 s⁻¹ and an on-rate (kon) of 315000 M⁻¹ s⁻¹.
The like results for B4 were, in that order, 27.4 nM, 0.017 s⁻¹ and 620000 M⁻¹ s⁻¹.
The like results for B5 were, in that order, 1.98 nM, 0.00172 s⁻¹ and 871000 M⁻¹ s⁻¹.
B6 gave an equilibrium dissociation constant (Kd) of 0.95 nM, an off-rate constant (koff) of 0.00125 s⁻¹ and a kon of 1.31e+06 M⁻¹ s⁻¹.

Broadly, the EC50 is the concentration at which the effect is half-maximal. The Kd is the constant that tells how readily two partners part at equilibrium. A high value points to a looser complex. As a reminder, the koff is the rate constant with which the complex falls apart. Usually kon stands for the second-order rate constant of association. Read a high kon as faster complex formation.
